One molecule from publication PMC6172466 can be followed below.

In general, Kd refers to the constant that tells how readily two partners part at equilibrium. A low value points to higher affinity.

This assay deals with FlAsH-tagged K63-linked diubiquitin (UniProt P0CG48). Kind of assay: fluorescence polarisation; FlAsH-tagged K63-linked diUb (diluted to 80 nM, mixed 1:1) with serially diluted OTUD1; 50 mM Tris, 50 mM NaCl, 0.1% β-mercaptoethanol, pH 7.6; room temperature, 1 h. For orientation: In fluorescence polarisation assays a small probe gives low polarisation when free and higher when bound to something large.

B1: OTUD1 catalytic domain (residues 287-435) C320A (domain or fragment)
chain: DEKLALYLAEVEKQDKYLRQRNKYRFHIIPDGNALYRAVSKTVYGDQSLHRELREQTVHYIADHLDHFSPLIEGDVGEFIIAAAQDGAWAGYPELLAMGQMLNVNIHLTTGGRLESPTVSTMIHYLGPEDSLRPSIWLSWLSNGHYDAV
B1 returned a Kd of 40 µM.
